The results in this text go back to IntAct's records for PubMed 20877282.

B1: Semaphorin-6A (Mus musculus), O35464-1 (parent)
chain: MRPAALLLCLTLLHCAGAGFPEDSEPISISHGNYTKQYPVFVGHKPGRNTTQRHRLDIQMIMIMNRTLYVAARDHIYTVDIDTSHTEEIYCSKKLTWKSRQADVDTCRMKGKHKDECHNFIKVLLKKNDDTLFVCGTNAFNPSCRNYRVDTLETFGDEFSGMARCPYDAKHANIALFADGKLYSATVTDFLAIDAVIYRSLGDSPTLRTVKHDSKWLKEPYFVQAVDYGDYIYFFFREIAVEYNTMGKVVFPRVAQVCKNDMGGSQRVLEKQWTSFLKARLNCSVPGDSHFYFNILQAVTDVIRINGRDVVLATFSTPYNSIPGSAVCAYDMLDIANVFTGRFKEQKSPDSTWTPVPDERVPKPRPGCCAGSSSLEKYATSNEFPDDTLNFIKTHPLMDEAVPSIINRPWFLRTMVRYRLTKIAVDNAAGPYQNHTVVFLGSEKGIILKFLARIGSSGFLNGSLFLEEMNVYNPEKCSYDGVEDKRIMGMQLDRASGSLYVAFSTCVIKVPLGRCERHGKCKKTCIASRDPYCGWVRESGSCAHLSPLSRLTFEQDIERGNTDGLGDCHNSFVALNGHASSLYPSTTTSDSASRDGYESRGGMLDWNDLLEAPGSTDPLGAVSSHNHQDKKGVIRESYLKSNDQLVPVTLLAIAVILAFVMGAVFSGIIVYCVCDHRRKDVAVVQRKEKELTHSRRGSMSSVTKLSGLFGDTQSKDPKPEAILTPLMHNGKLATPSNTAKMLIKADQHHLDLTALPTPESTPTLQQKRKPNRGSREWERNQNIINACTKDMPPMGSPVIPTDLPLRASPSHIPSVVVLPITQQGYQHEYVDQPKMSEVVAQMALEDQAATLEYKTIKEHLSSKSPNHGVNLVENLDSLPPKVPQREASLGPPGTSLSQTGLSKRLEMQHSSSYGLEYKRSYPTNSLTRSHQTTTLKRNNTNSSNSSHLSRNQSFGRGDNPPPAPQRVDSIQVHSSQPSGQAVTVSRQPSLNAYNSLTRSGLKRTPSLKPDVPPKPSFAPLSTSMKPNDACT
B2: Plexin-A2 (Mus musculus), P70207 (parent)
chain: MEQRRFYLRAMQADNLSVVLLSVAWLLLARGTTGMPQYSTFHSENRDWTFNHLTVHRRTGAVYVGAINRVYKLTGNLTIQVAHKTGPEEDNKACYPPLIVQPCSEVLTLTNNVNKLLIIDYSENRLLACGSLYQGVCKLLRLDDLFILVEPSHKKEHYLSSVNKTGTMYGVIVRSEGEDGKLFIGTAVDGKQDYFPTLSSRKLPRDPESSAMLDYELHSDFVSSLIKIPSDTLALVSHFDIFYIYGFASGGFVYFLTVQPETPDGMAINSAGDLFYTSRIVRLCKDDPKFHSYVSLPFGCTRAGVEYRLLQAAYLAKPGEALAQAFNISSDEDVLFAIFSKGQKQYHHPPDDSALCAFPIRAINLQIKERLQSCYHGEGNLELNWLLGKDVQCTKAPVPIDDNFCGLDINQPLGGSTPVEGLTLYTTSRDRLTSVASYVYNGYSVVFVGTKSGKLKKIRADGPPHGGVQYEMVSVFKDGSPILRDMAFSINQLYLYVMSERQVTRVPVESCEQYTTCGECLSSGDPHCGWCALHNMCSRRDKCQRAWEANRFAASISQCMSLEVHPNSISVSDHSRLLSLVVNDAPNLSEGIACAFGNLTEVEGQVSGSQVICISPGPKDVPVIPLDQDWFGLELQLRSKETGKIFVSTEFKFYNCSAHQLCLSCVNSAFRCHWCKYRNLCTHDPTTCSFQEGRINVSEDCPQLVPTEEILIPVGEVKPITLKARNLPQPQSGQRGYECVLSIQGAVHRVPALRFNSSSVQCQNSSYQYDGMDISNLAVDFAVVWNGNFIIDNPQDLKVHLYKCAAQRESCGLCLKADHKFECGWCSGERRCTLHQHCPSTSSPWLDWSSHNVKCSNPQITEILTVSGPPEGGTRVTIHGVNLGLDFSEIAHHVQVAGVPCTPIPGEYIIAEQIVCEMGHAVIGTTSGPVRLCIGECKPEFMTKSHQQYTFVNPSVLSLSPIRGPESGGTMVTITGHYLGAGSSVAVYLGNQTCEFYGRSMNEIVCVSPPSSNGLGPVPVSVSVDRARVDSSLQFEYIDDPRVQRIEPEWSITSGHTPLTITGFNLDVIQEPRVRVKFNGKESVNVCTVVNTTTLTCLAPSLTSDYRPGLDTVERPDEFGFLFNNVQSLLIYNDTKFIYYPNPTFELLSPTGILDQKPGSPIILKGKNLCPPASGGAKLNYTVMIGETPCTVTVSETQLLCEPPNLTGQHKVMVHVGGMVFSPGSVSVISDSLLTLPAIISIAAGGSLLLIIVIIVLIAYKRKSRENDLTLKRLQMQMDNLESRVALECKEAFAELQTDINELTSDLDRSGIPYLDYRTYAMRVLFPGIEDHPVLRELEVQGNGQQHVEKALKLFAQLINNKVFLLTFIRTLELQRSFSMRDRGNVASLIMTGLQGRLEYATDVLKQLLSDLIDKNLENKNHPKLLLRRTESVAEKMLTNWFAFLLHKFLKECAGEPLFMLYCAIKQQMEKGPIDAITGEARYSLSEDKLIRQQIEYKTLILNCVNPDNENSPEIPVKVLNCDTITQVKEKILDAVYKNVPYSQRPRAVDMDLEWRQGRIARVVLQDEDITTKIEGDWKRLNTLMHYQVSDRSVVALVPKQTSSYNIPASASISRTSISRYDSSFRYTGSPDSLRSRVPMITPDLESGVKVWHLVKNHDHGDQKEGDRGSKMVSEIYLTRLLATKGTLQKFVDDLFETLFSTVHRGSALPLAIKYMFDFLDEQADRHSIHDTDVRHTWKSNCLPLRFWVNVIKNPQFVFDIHKGSITDACLSVVAQTFMDSCSTSEHRLGKDSPSNKLLYAKDIPSYKNWVERYYADIAKLPAISDQDMNAYLAEQSRLHATEFNMLSALNEIYSYVSKYSEELIGALEQDEQARRQRLAYKVEHLINAMSIES
partner: B1 chain

In the first test the parent is B1. To be noted: with plxa2_mouse Plxna2, P70207.
For L191R, the “effect of a mutation on the interaction” value is reported as “decreasing interaction”.

In a further test the parent is B2. Particulars: with Sema6a.
Consider A396E, for which the “effect of a mutation on the interaction” value was “disrupting interaction”.

Consider F221R, for which the “effect of a mutation on the interaction” value is “disrupting interaction”.
